test: soluble on expression in E. coli; label from the status in PepcDB or PDB records

Sequence	soluble on expression in E. coli
LIIFVFGYYLAFNQNKYVSYNDETKQFVHTDTSKIMENLVNRQQGIYYFGFPTCPWCLELLPILDKELEKESMNAYAVNTRGDDYTENDDELLQKFYQKYTGDESLSVPFIVAINNKKEVQVHIGTVKNHDATKTKLKRRQKE	not soluble
MASTSTGLPPNWTIRVSRSHNKEYFLNQSTNESSWDPPYGTDKEVLNAYIAKFKNNGYKPLVNEDGQVRVSHLLIKNNQSRKPKSWKSPDGISRTRDESIQILKKHLERILSGEVKLSELANTESDCSSHDRGGDLGFFSKGQMQPPFEEAAFNLHVGEVSNIIETNSGVHILQRTG	soluble
MGSDKIHHHHHHVTEPIRLYYWPAPNFGDALSHLVVEHVSGRPVVNARPKQAELFALGSLMHVISRHWTERVRGEGPLLWGTGLLNPFYRKEFLENVRVRLLRGPISAAFLRLKMTEFGDPGLLADEAVGPVEDRHDRVAIVPHHSQMDDPRFVEMVEADPALHLIDVRLDPVTVCREIAASAHVFSASLHGLIVADAYGVANTWMDPEAQGRLKYHDYAAAIGRDMIAPVEIRDVPKAARTARDRPFPYADGIARCRESLHRHFPAELRAPLRATAS	not soluble
MGSDKIHHHHHHMSKHALKLIPSSTEHADVPNDCKNCGAYHLCMSLWLKTADSSLLERVVKKKQVFKRGEVLYRMGQPLEYIYVIRGGSVKTCVSTEDGQVQVMGFHAAGELLGLNAISNREHKCEARAMGVTSVCEVSVERFEELAKKDPAIQYEILKIMSAEIHHGQELLLLLGKHNAEERIAIFLLNLSRQFEQRHCSATEFTLCMSRSDIGNYLGIAEETVCRIFARFQDDGLISSEYRNVKLKDIKRLEQIANQRPQRSLRQTNVASLYF	not soluble
AGNATEVPANSTVLSFCAFAVDPAKAYKDYLASGGQPITNCVKMLCTHTGTGQAITVTPEANMDQESFGGASCCLYCRCHIDHPNPKGFCDLKGKYVQIPTTCANDPVGFTLRNTVCTVCGMWKGYGCSCDQLREPLMQSADASTFLNGFAV	soluble
MGSDKIHHHHHHMTSDIKRHIKELISGSENSEVEFKSAKGGLPESFWETFSAFANTNGGIIVLGIKEKNGIFMPDGLNKQQIDTYKKRFWDCAHNKEKVSATMLAERDVYETDIDGNFVLLFRIPRASYDIRPVYLTRNPFGNTFKRNHEGDYHCTDSEIRQMFADAHHATLPFDNQILPNYSMNDIDVATLKGYRQRFMLRKDNHPWNELDDFNFLCKIGAYRVDRENGQEGFTRAGILMFGKTESITDQVCCPWYFVDYQEKLSNNTNERWSDRIYADGSWNANLYQFFFKVYNKLSQTLPAPFLLNGIERTEETSAHIAIREALVNCIVHCNYAEQGNILIVREKDKITFRNPGRMLISVDDFYVGSQSVCRNPIIQKFFIQLGYGEKAGSGADYIVKGAIDNKWHIPALVEHVQPDTVSLYLYLNDANDTSYDANNTSYDANDTSYDANDTSYDANDTSSNEHGQRLTKETLINRVLEICEDWITIDEISEKTGKSRQYLRGRIIPEMLKLGLLEKQYPDASTSPNQKYRKKQ	not soluble
MSLKITDVDVWVVNLPLVNPFTSSFETKTGETRTVVRVRTDSGVEGWGETMWGAPVAAIVRRMAPDLIGTSPFALEAFHRKQHMVPFFYGYLGYAAIAAVDVACWDAMGKATGQSVTDLLGGAVRDEVPITALITRADAPGATPADLPKAMAEHAVRVVEEGGFDAVKLKGTTDCAGDVAILRAVREALPGVNLRVDPNAAWSVPDSVRAGIALEELDLEYLEDPCVGIEGMAQVKAKVRIPLCTNMCVVRFEDFAPAMRLNAVDVIHGDVYKWGGIAATKALAAHCETFGLGMNLHSGGELGIATAAHLAVVSSTPVLSRAIDSMYYLHADDIIEPLHLENGRLRVPSGPGLGVSVDEDKLRHYAGVNERDGDLTGEGHHHHHH	soluble
MVLRTGRLSDFQRDMMNDHWAKFGLDYQKSPFDFVEIFGNANPVVLEIGFGMGRSLVEMAAQNPDRNYIGIEVHTPGVGACIAYAVEKQVDNLRVICHDATEILRDAVADGSLAGLQLYFPDPWQKSKHHKRRIVQTEFVMRLLTKLTAGGFIHFATDWQNYAEHMLAVLRQFSPALVNTSPTGDFIDRPAFRPLTKFEARGQRLGHAVWDLYFVKKLEHHHHHH	not soluble
MEEKKALRNRIKKLLRSQPEQQRKEGSQRVADILFSLPEWNEAHAIGITISLPHEVQTELIISRGWEEGKQIAVPRVKKGTTQMTFYEIHSFSVLEDTFFGLREPKPSECRQIDGQELDLLLVPGVAFDQKGNRLGYGGGYYDRFLHSYKGKTIALAYSQQLVESVPTDERDERVQMIVTERGVYRLEHHHHHH	soluble
MSLGQKFAVFIAYDDEPNTKRYSAEFQTQDEYVKGWQSALKKAHHTSGQKSVISCGCRGKGAKRLYVRSLPNSDTFILIKAANTGTEHDPSCVFFDLDARHTGLKGYASNVVRINNEGTMSIRLGIGMTEKDPPEKSEVPSLPQIQRPEGGQASMTLSGLLSLLWTEAGLNVWYPNMAGKRNDSLVRYRMLEAAKQIRSGRACIGDHLFIGVADSKSKVASEQVQLLSSAELSDKRLLLLSVLPRYDAEKHEKPLKFLPMRNFGGMPLTFFNSDGHWDSVKRRFPLEYAAWKNGGKVVVFALTSPVSVTSRGISARAHQIVLMLVSDNWIPLDSSYEAIVSRKLDAEHRHYVKPMRYDASASDVFPDFYLLDTRSDKPFPMEVFGMSTPAYLARKELKKAYYNQEYGAYGWWHWDATEKTEYQELPHFPEARREGHHHHHH	soluble
MARINRISITLCALLFTTLPLTPMAHASKQARESSATTHITKKADKKKSTATTKKTQKTAKKAASKSTTKSKTASSVKKSSITASKNAKTRSKHTVNKTASASLTEKCTKRKGYKSHCVKVKNAASGTLADAHKAKVQKATKVAMNKLMQQIGKPYRWGGSSPRTGFDCSGLVYYAYKDLVKIRIPRTANEMYHLRDAAPIERSELKNGDLVFFRTQGRGTADHVGVYVGNGKFIQSPRTGQEIQITSLSEDYWQRHYVGARRVMTPKTLR	soluble
MSSEEQDVKIVTSDDVEFIVSPKIANQSKLLADFVVLNQREPIPLKNVTSEIFKKVIEWCEYHAEDIPKPPDNVEEKRTDDIGEWDVEFLKVDKGTLFELVLAATYLDIKGLFNVTCKSIANSIKGKSPEEIRAVFNLGNETNME	not soluble
MGRGSFTQIDTPDQVTERMRALLVKLESPAVTDLTATFSEPGIDVTPARLPDLYRGEPLTLSARMGQARGTLTLTGRIGGQPWQTQLHLDAAQDGTGIGKLWARAKIAEAETARLTGGLTAEAADAAILRLALDHGLTTRLTSLVAVDATPRRPAGMRLASTELPLNLPAGWDFETVFGTQDELEHHHHHH	not soluble
MAGDPMKNKSLLLAVAISATLLAGCKNGVNGNLIASSGMSTYKAATLSDADVKALSNNACKQMDSENQLAGSKSKYTKRLSKIAKALGNNIDGTPVSYKVYMTSDINAWAMANGCVRVYSGLMDLMTDNEIEGVLGHELGHVSLGHSRKAMQTAYATLAARDAISATSGVAAQLSQSQLGDLAEGVINSAFSRSQESDADDFSYDLLKKRGINTQGLVTAFDKFATMDAGHAKSLMDSHPASADRAQHMRDRIAEDKKLEHHHHHH	soluble
MAHHHHHHMGSKYGSGNYQLFRALYKDLCDEIRREYYTKPPPPPPATRTTGASPSLVAAEAALEVHGSAGSGANDTSSGAAKQRSMAGGAGATSSSTQGGGMTAGSEREGSTVEAAHAARETAATPPSQPEETYGDGSWSVQHRPEDNVAVFHRGAVKRGRLAAVHAWARIELKDPPRLNAVLTFADWIPIEVCVERNGIVIHFSMAANEGGMHMRNVRVYEPKSAEERAALLDPSDDGEYARKNFYYDGPCLWHLELDMLNELYDVMQDHGVTLDWIRWAASWVFYLEHVNYVRWNLGMLEELIPSSLRGPEEDFLLPVEKALLAEPVEDWLRAHSI	not soluble
MSLNKQDKKWRVLVVDDDADVLTNTVYTLMDLKVLGRELDITTLGSATAAIELLERERDFAVILLDVVMEKPHAGLSLVTMIRHDFNMQMSRIILRTGNPGYAPERDITLKLEIDDYILKQTAVRDRIITAVIVAIRAYDQLQRLARLKDAMQQIICCSNQLLTTDEIDQFANVCMQYVAPIFGKNAGGGLAYAGMTVNQGIVPLTVMSATSEHESLIEPLNGIGVLPPNISVTKKKMTKALEQTNSIKTDKDWYIYIKVSLGRKVVLWLNKPDGFDEIDETLGKSFANTIKACLDREGHHHHHH	soluble
MHILVTGFAPFDNQNINPSWEAVTQLEDIIGTHTIDKLKLPTSFKKVDNIINKTLASNHYDVVLAIGQAGGRNAITPERVAINIDDARIPDNDDFQPIDQAIHLDGAPAYFSNLPVKAMTQSIINQGLPGALSNSAGTFVCNHTLYHLGYLQDKHYPHLRFGFIHVPYIPEQVIGKPDTPSMPLEKIVAGLTAAIEAISNDEDLHLALGTTE	not soluble
MRLIVVSGQSGAGKSVALRVLEDLGYYCVDNLPVSLLTAFIQSVQGSQQNVAVSIDIRNLPKEPSLVQDVLDQLKQNNDVSMLFLDASKETLLKRYSETRRIHPLSLSQSKPSLAQAIELEKQLLGPLKEQADLLLDSSNQSLHELSETVRMRIEGRERKDLVMVFQSFGFKYGLPTDADYVFDVRFLPNPHWEPDLRPLTGLDAPIKSFLEGHSEVMELKQQIQKFFEYWLPMLEKNNRSYLTIAIGCTGGKHRSVYLTQQLGEYFAQLGHQVQLRHTSLEKQ	soluble
SSTFSASDFNSERYSSSRPSYPSDFYKMIDEYHDGERKLLVDVGCGPGTATLQMAQELKPFEQIIGSDLSATMIKTAEVIKEGSPDTYKNVSFKISSSDDFKFLGADSVDKQKIDMITAVECAHWFDFEKFQRSAYANLRKDGTIAIWGYADPIFPDYPEFDDLMIEVPYGKQGLGPYWEQPGRSRLRNMLKDSHLDPELFHDIQVSYFCAEDVRDKVKLHQHTKKPLLIRKQVTLVEFADYVRTWSAYHQWKQDPKNKDKEDVADWFIKESLRRRPELSTNTKIEVVWNTFYKLGKRV	soluble
MFPYFESVATASTEFHAIEPDPHMRRQAAEQANTQATPIHIESSPAEALPYYEDTFDVVITSMVFCTIPDIESAMSEITRVLKPGGELRFFEHVIDDGWRARLQSALAPLWKRLAGGCHLTRQTGTRLVADQSFDVVEIERLNLGITPIRPFVRGRLRKRSVSSTRLEHHHHHH	not soluble
MRGSHHHHHHGSADAYPSKAIRVIVPFAPGGSTDIIARLVTQRMSQELGQPMVVENKGGAGGAIGASEAARAEPDGYTLSIATVSTMAVNPACRPKDLPYDPIKDFQPVTNFANTANVVAVNPKFPAKDFKGFLEELKKNPGKYSYGSSGTCGVLHLMGESFKMATGTDIVHVPYKGSGPAVADAVGGQIELIFDNLPSSMPQIQAGKLRAMAIAWPTRIDAIKDVPTFADAGFPVLNQPVWYGLLAPKGTPMDVVNKLRDAAVVALKDPKVIKALDDQGSAPSGNTPEEFAKEIKEQYDWAQDVVKKQNIKLD	soluble
APPKAVLKLEPPWINVLQEDSVTLTCQGARSPESDSIQWFHNGNLIPTHTQPSYRFKANNNDSGEYTCQTGQTSLSDPVHLTVLSEWLVLQTPHLEFQEGETIMLRCHSWKDKPLVKVTFFQNGKSQKFSRLDPTFSIPQANHSHSGDYHCTGNIGYTLFSSKPVTITVQVHHHHHH	soluble

Reference: the DeepSol protein solubility set
